Experimental data reported in US20230220042A1 (SHANGHAI JIAO TONG UNIVERSITY SCHOOL OF MEDICINE, published 2023).

T1: FcγRIIA^131H (human, UniProt P12318 34-217, biotin-labeled)
T1 construct: extracellular domain; Bought protein; also called RIIAH
T1 sequence (looked up): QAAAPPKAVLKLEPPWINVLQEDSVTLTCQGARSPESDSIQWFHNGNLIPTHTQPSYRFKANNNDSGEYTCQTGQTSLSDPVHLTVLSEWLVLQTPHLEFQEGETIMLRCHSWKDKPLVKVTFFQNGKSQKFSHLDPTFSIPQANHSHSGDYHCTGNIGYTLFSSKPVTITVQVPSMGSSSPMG

T2: FcγRIIA^131R (human, UniProt P12318 34-217, biotin-labeled)
T2 construct: extracellular domain; Bought protein; also called RIIAR
T2 sequence (looked up): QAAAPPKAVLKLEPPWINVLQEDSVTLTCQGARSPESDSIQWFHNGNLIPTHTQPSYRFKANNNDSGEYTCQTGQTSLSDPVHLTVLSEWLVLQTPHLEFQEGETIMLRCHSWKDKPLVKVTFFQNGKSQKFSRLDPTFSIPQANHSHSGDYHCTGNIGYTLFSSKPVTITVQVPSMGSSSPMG

T3: FcγRIIB (human, UniProt P31994 43-217, biotin-labeled)
T3 construct: extracellular domain; Bought protein; also called CD32b
T3 sequence (looked up): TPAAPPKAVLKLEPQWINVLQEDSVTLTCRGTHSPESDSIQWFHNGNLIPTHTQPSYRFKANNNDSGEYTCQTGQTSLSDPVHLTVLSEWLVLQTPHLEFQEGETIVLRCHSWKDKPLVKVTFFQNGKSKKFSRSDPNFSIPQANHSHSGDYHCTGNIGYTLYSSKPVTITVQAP


Tests used:
FcγRI = target: T4, FcγRI (human, UniProt P12314 16-292, biotin-labeled); assay: ELISA, coated antibody, biotin-FcγR;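 as to Absorbance value: antibody coated at 2 µg/mL at 100 µL per well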
T4 construct: extracellular domain; Bought protein; also called CD64

FcγRIIA^131H = target: T1, FcγRIIA^131H; assay: ELISA, coated antibody, biotin-FcγR;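 as to Absorbance value: antibody coated at 2 µg/mL at 100 µL per well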
FcγRIIA^131R = target: T2, FcγRIIA^131R; assay: ELISA, coated antibody, biotin-FcγR;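 as to Absorbance value: antibody coated at 2 µg/mL at 100 µL per well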
FcγRIIB [1] = target: T3, FcγRIIB; assay: ELISA, coated antibody, biotin-FcγR;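 as to Absorbance value: antibody coated at 2 µg/mL at 100 µL per well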
FcγRIIIA^158F = target: T5, FcγRIIIA^158F (human, UniProt P08637 17-208, biotin-labeled); assay: ELISA, coated antibody, biotin-FcγR;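 as to Absorbance value: antibody coated at 2 µg/mL at 100 µL per well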
T5 construct: extracellular domain; Bought protein; also called RIIIAF

FcγRIIIA^158V = target: T6, FcγRIIIA^158V (human, UniProt P08637 17-208, biotin-labeled); assay: ELISA, coated antibody, biotin-FcγR;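 as to Absorbance value: antibody coated at 2 µg/mL at 100 µL per well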
T6 construct: extracellular domain; Bought protein; also called RIIIAV; CD16a 158V

FcγRIIB [2] = target: T3, FcγRIIB; assay: ELISA; relative affinity to FcγRIIB over that to FcγRIIA131R

T5 sequence (P08637 17-208): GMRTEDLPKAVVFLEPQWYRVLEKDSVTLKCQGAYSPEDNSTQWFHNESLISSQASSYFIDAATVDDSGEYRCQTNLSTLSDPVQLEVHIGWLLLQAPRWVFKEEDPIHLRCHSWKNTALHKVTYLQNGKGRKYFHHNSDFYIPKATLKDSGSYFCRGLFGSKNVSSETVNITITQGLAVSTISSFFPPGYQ
T4 sequence (P12314 16-292): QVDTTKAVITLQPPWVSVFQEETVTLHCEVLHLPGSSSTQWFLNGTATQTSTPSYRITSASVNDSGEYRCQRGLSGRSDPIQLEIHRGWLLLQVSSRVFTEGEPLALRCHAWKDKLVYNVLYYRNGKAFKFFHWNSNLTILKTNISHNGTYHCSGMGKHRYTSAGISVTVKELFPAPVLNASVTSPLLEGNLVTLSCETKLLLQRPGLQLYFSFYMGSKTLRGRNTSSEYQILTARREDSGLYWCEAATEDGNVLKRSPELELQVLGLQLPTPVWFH
T6 sequence (P08637 17-208 F176V): as the sequence (P08637 17-208) above, with F160V counted along it

| Binder | Absorbance value (FcγRI) [A650] | Relative binding affinity RI/G1 (FcγRI) [ratio] | Absorbance value (FcγRIIA^131H) [A650] | Relative binding affinity RIIAH/G1 (FcγRIIA^131H) [ratio] | Absorbance value (FcγRIIA^131R) [A650] | Relative binding affinity RIIAR/G1 (FcγRIIA^131R) [ratio] | Absorbance value (FcγRIIB [1]) [A650] | Increased factor of RIIB binding compared with wild-type IgG2 (FcγRIIB [1]) [fold] | Relative binding affinity RIIB/G1 (FcγRIIB [1]) [ratio] | Absorbance value (FcγRIIIA^158F) [A650] | Relative binding affinity RIIIAF/G1 (FcγRIIIA^158F) [ratio] | Absorbance value (FcγRIIIA^158V) [A650] | Relative binding affinity RIIIAV/G1 (FcγRIIIA^158V) [ratio] | RIIB/RIIAR (FcγRIIB [2]) [ratio] |
| --- | --- | --- | --- | --- | --- | --- | --- | --- | --- | --- | --- | --- | --- | --- |
| anti-human OX40 IgG2 antibody Mut_17 (V266L/S267E/H268S/E269V) (antibody, name in EU numbering, Substitutions in Eu numbering; entries include an unstated signal peptide) heavy: QVQLQESGPGLVKPSGTLSLTCAVSGGSISSSIWWSWVRQPPGKGLEWIGEIHHSGNTNCNPSLKSRVTISIDKSKNQFSLKLTSVTAADTAVYYCARAGTGTTLDYWGQGTLVTVSSASTKGPSVFPLAPCSRSTSESTAALGCLVKDYFPEPVTVSWNSGALTSGVHTFPAVLQSSGLYSLSSVVTVPSSNFGTQTYTCNVDHKPSNTKVDKTVERKCCVECPPCPAPPVAGPSVFLFPPKPKDTLMISRTPEVTCVVVDLESVDPEVQFNWYVDGVEVHNAKTKPREEQFNSTFRVVSVLTVVHQDWLNGKEYKCKVSNKGLPAPIEKTISKTKGQPREPQVYTLPPSREEMTKNQVSLTCLVKGFYPSDIAVEWESNGQPENNYKTTPPMLDSDGSFFLYSKLTVDKSRWQQGNVFSCSVMHEALHNHYTQKSLSLSPGK light: EIVLTQSPGTLSLSPGERATLSCRASQSVSGDYLAWYQQKLGQAPRLLIYGASIRATGIPDRFSGSGSGTDFTLTISKLEPEDFAVYYCQQYGSSPLTFGGGTKVEIKRTVAAPSVFIFPPSDEQLKSGTASVVCLLNNFYPREAKVQWKVDNALQSGNSQESVTEQDSKDSTYSLSSTLTLSKADYEKHKVYACEVTHQGLSSPVTKSFNRGEC | 0.14 | 0.05 | 0.54 | 0.95 | 0.5 | 1.9 | 1.19 | 15.9 | 1.58 | 0.09 | 0.49 | 0.06 | 0.06 | 0.83 |
| anti-human OX40 IgG2 antibody Mut_18 (P233G/S267E) (antibody, Substitutions in Eu numbering; entries include an unstated signal peptide) heavy: QVQLQESGPGLVKPSGTLSLTCAVSGGSISSSIWWSWVRQPPGKGLEWIGEIHHSGNTNCNPSLKSRVTISIDKSKNQFSLKLTSVTAADTAVYYCARAGTGTTLDYWGQGTLVTVSSASTKGPSVFPLAPCSRSTSESTAALGCLVKDYFPEPVTVSWNSGALTSGVHTFPAVLQSSGLYSLSSVVTVPSSNFGTQTYTCNVDHKPSNTKVDKTVERKCCVECPPCPAPGVAGPSVFLFPPKPKDTLMISRTPEVTCVVVDVEHEDPEVQFNWYVDGVEVHNAKTKPREEQFNSTFRVVSVLTVVHQDWLNGKEYKCKVSNKGLPAPIEKTISKTKGQPREPQVYTLPPSREEMTKNQVSLTCLVKGFYPSDIAVEWESNGQPENNYKTTPPMLDSDGSFFLYSKLTVDKSRWQQGNVFSCSVMHEALHNHYTQKSLSLSPGK light: EIVLTQSPGTLSLSPGERATLSCRASQSVSGDYLAWYQQKLGQAPRLLIYGASIRATGIPDRFSGSGSGTDFTLTISKLEPEDFAVYYCQQYGSSPLTFGGGTKVEIKRTVAAPSVFIFPPSDEQLKSGTASVVCLLNNFYPREAKVQWKVDNALQSGNSQESVTEQDSKDSTYSLSSTLTLSKADYEKHKVYACEVTHQGLSSPVTKSFNRGEC | 0.14 | 0.05 | 0.38 | 0.67 | 0.26 | 1 | 0.78 | 10.4 | 1.04 | 0.09 | 0.47 | 0.08 | 0.09 | 1.03 |

The next lines start with the values.

| Absorbance value (FcγRI) [A650] | Relative binding affinity RI/G1 (FcγRI) [ratio] | Absorbance value (FcγRIIA^131H) [A650] | Relative binding affinity RIIAH/G1 (FcγRIIA^131H) [ratio] | Absorbance value (FcγRIIA^131R) [A650] | Relative binding affinity RIIAR/G1 (FcγRIIA^131R) [ratio] | Absorbance value (FcγRIIB [1]) [A650] | Increased factor of RIIB binding compared with wild-type IgG2 (FcγRIIB [1]) [fold] | Relative binding affinity RIIB/G1 (FcγRIIB [1]) [ratio] | Absorbance value (FcγRIIIA^158F) [A650] | Relative binding affinity RIIIAF/G1 (FcγRIIIA^158F) [ratio] | Absorbance value (FcγRIIIA^158V) [A650] | Relative binding affinity RIIIAV/G1 (FcγRIIIA^158V) [ratio] | RIIB/RIIAR (FcγRIIB [2]) [ratio] | Binder |
| --- | --- | --- | --- | --- | --- | --- | --- | --- | --- | --- | --- | --- | --- | --- |
| 0.11 | 0.04 | 0.33 | 0.58 | 0.28 | 1.08 | 0.82 | 11 | 1.09 | 0.07 | 0.38 | 0.07 | 0.07 | 1 | anti-human OX40 IgG2 antibody Mut_19 (V266L/S267E/H268S/E269V/P271C) (antibody, name in EU numbering, Substitutions in Eu numbering; entries include an unstated signal peptide) heavy: QVQLQESGPGLVKPSGTLSLTCAVSGGSISSSIWWSWVRQPPGKGLEWIGEIHHSGNTNCNPSLKSRVTISIDKSKNQFSLKLTSVTAADTAVYYCARAGTGTTLDYWGQGTLVTVSSASTKGPSVFPLAPCSRSTSESTAALGCLVKDYFPEPVTVSWNSGALTSGVHTFPAVLQSSGLYSLSSVVTVPSSNFGTQTYTCNVDHKPSNTKVDKTVERKCCVECPPCPAPPVAGPSVFLFPPKPKDTLMISRTPEVTCVVVDLESVDCEVQFNWYVDGVEVHNAKTKPREEQFNSTFRVVSVLTVVHQDWLNGKEYKCKVSNKGLPAPIEKTISKTKGQPREPQVYTLPPSREEMTKNQVSLTCLVKGFYPSDIAVEWESNGQPENNYKTTPPMLDSDGSFFLYSKLTVDKSRWQQGNVFSCSVMHEALHNHYTQKSLSLSPGK light: EIVLTQSPGTLSLSPGERATLSCRASQSVSGDYLAWYQQKLGQAPRLLIYGASIRATGIPDRFSGSGSGTDFTLTISKLEPEDFAVYYCQQYGSSPLTFGGGTKVEIKRTVAAPSVFIFPPSDEQLKSGTASVVCLLNNFYPREAKVQWKVDNALQSGNSQESVTEQDSKDSTYSLSSTLTLSKADYEKHKVYACEVTHQGLSSPVTKSFNRGEC |
| 0.12 | 0.05 | 0.48 | 0.85 | 0.46 | 1.76 | 1.13 | 15.1 | 1.5 | 0.06 | 0.31 | 0.05 | 0.06 | 0.85 | anti-human OX40 IgG2 antibody Mut_20 (V266L/S267E/H268S/E269A/P271C) (antibody, name in EU numbering, Substitutions in Eu numbering; entries include an unstated signal peptide) heavy: QVQLQESGPGLVKPSGTLSLTCAVSGGSISSSIWWSWVRQPPGKGLEWIGEIHHSGNTNCNPSLKSRVTISIDKSKNQFSLKLTSVTAADTAVYYCARAGTGTTLDYWGQGTLVTVSSASTKGPSVFPLAPCSRSTSESTAALGCLVKDYFPEPVTVSWNSGALTSGVHTFPAVLQSSGLYSLSSVVTVPSSNFGTQTYTCNVDHKPSNTKVDKTVERKCCVECPPCPAPPVAGPSVFLFPPKPKDTLMISRTPEVTCVVVDLESADCEVQFNWYVDGVEVHNAKTKPREEQFNSTFRVVSVLTVVHQDWLNGKEYKCKVSNKGLPAPIEKTISKTKGQPREPQVYTLPPSREEMTKNQVSLTCLVKGFYPSDIAVEWESNGQPENNYKTTPPMLDSDGSFFLYSKLTVDKSRWQQGNVFSCSVMHEALHNHYTQKSLSLSPGK light: EIVLTQSPGTLSLSPGERATLSCRASQSVSGDYLAWYQQKLGQAPRLLIYGASIRATGIPDRFSGSGSGTDFTLTISKLEPEDFAVYYCQQYGSSPLTFGGGTKVEIKRTVAAPSVFIFPPSDEQLKSGTASVVCLLNNFYPREAKVQWKVDNALQSGNSQESVTEQDSKDSTYSLSSTLTLSKADYEKHKVYACEVTHQGLSSPVTKSFNRGEC |
